According to patent US6429304 (University of California, dated 2002):

Target: T1, p80 delta 560-690 (S. purpuratus p80 katanin lacking the C-terminal 130 amino acids), in vitro translated … (Strongylocentrotus purpuratus, UniProt O61585 1-559)
T1 construct: The residues kept are derived from the deletion named; also called delta 560-690 derivative of p80; not shown: 37 amino acid N-terminal S-Tag from pCITE-4a+ (Novagen)
T1 sequence: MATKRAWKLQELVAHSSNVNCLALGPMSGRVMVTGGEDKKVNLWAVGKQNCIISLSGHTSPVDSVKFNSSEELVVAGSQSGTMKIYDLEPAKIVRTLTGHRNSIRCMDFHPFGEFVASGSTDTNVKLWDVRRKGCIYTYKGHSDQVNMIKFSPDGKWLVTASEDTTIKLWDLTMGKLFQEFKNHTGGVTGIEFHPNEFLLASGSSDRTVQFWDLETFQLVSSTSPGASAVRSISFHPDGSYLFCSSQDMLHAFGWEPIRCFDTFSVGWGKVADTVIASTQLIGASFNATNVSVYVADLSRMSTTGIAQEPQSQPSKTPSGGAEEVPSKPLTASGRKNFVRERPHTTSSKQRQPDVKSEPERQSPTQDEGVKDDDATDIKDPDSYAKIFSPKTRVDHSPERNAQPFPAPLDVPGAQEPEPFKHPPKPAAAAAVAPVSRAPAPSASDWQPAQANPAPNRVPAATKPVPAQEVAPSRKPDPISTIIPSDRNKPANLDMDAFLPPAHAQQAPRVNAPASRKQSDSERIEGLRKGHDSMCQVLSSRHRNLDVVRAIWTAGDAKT
Experiment: co-translation in rabbit reticulocyte lysate, immunoprecipitation with anti-p60 antibody
Experimental: In vitro synthesis of proteins directly from plasmid DNAs was accomplished using the Single Tube Protein System 2, T7 (Novagen). […] For immunoprecipitations, lysates were incubated on ice with Pansorbin (Calbiochem)-antibody complexes, washed in NET buffer (50 mM Tris-Cl (pH 7.5), 150 mM NaCl, 0.1% Nonidet P40, 1 mM EDTA (pH 8.0), 0.25% gelatin and 0.02% sodium azide), then resuspended in SDS-PAGE sample buffer. In vitro translation products in both the pellets and supernatants from the immunoprecipitations were resolved by SDS-PAGE, transferred to nitrocellulose, probed with S-protein HRP conjugate (Novagen) and detected by chemiluminescence.

- binding result: no binding
B1: in vitro translated S. purpuratus p60 katanin with 37 amino acid N-terminal S-Tag (enzyme)
chain: MSVDEICENTKMGREYALLGNYETSLVYYQGVLQQIQKLLTSVHEPQRKHQWQTIRQELSQEYEHVKNITKTLNGFKSEPAAPEPAPNHRAAPFSHHQHAAKPAAAEPARDPDVWPPPTPVDHRPSPPYQRAARKDPPRRSEPSKPANRAPGNDRGGRGPSDRRGDARSGGGGRGGARGSDKDKNRGGKSDKDKKAPSGEEGDEKKFDPAGYDKDLVENLERDIVQRNPNVHWADIAGLTEAKRLLEEAVVLPLWMPDYFKGIRRPWKGVLMVGPPGTGKTMLAKAVATECGTTFFNVSSASLTSKYHGESEKLVRLLFEMARFYAPSTIFIDEIDSICSKRGTGSEHEASRRVKSELLIQMDGVSGPSAGEESSKMVMVLAATNFPWDIDEALRRRLEKRIYIPLPEIDGREQLLRINLKEVPLADDIDLKSIAEKMDGYSGADITNVCRDASMMAMRRRIQGLRPEEIRHIPKEELNQPSTPADFLLALQKVSKSVGKEDLVKYMAWMEEFGSV
notes: Made in a rabbit reticulocyte coupled transcription-translation reaction; not shown: 37 amino acid N-terminal S-Tag from pCITE-4a+ (Novagen)
